Test results published in patent US20260109776A1 (Amgen, published 2026).
Substitutions are numbered along the chain they refer to. Values belong to the binder of their own block, whether it stands above or below them.

Assays:
[1] = biological target: T1, cynoMSLN(296-598) (cynomolgus monkey); experiment: Octet
T1 chain: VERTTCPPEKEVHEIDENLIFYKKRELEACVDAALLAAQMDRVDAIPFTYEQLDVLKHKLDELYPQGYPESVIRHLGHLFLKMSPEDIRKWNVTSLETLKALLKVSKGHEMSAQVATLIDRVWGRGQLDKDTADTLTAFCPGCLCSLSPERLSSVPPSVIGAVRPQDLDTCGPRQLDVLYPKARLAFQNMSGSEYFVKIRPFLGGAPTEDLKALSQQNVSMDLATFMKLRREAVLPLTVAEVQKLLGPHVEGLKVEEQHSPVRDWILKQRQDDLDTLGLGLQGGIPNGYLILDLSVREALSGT
Procedure: (§1) A panel of mesothelin×CD40 bispecific antibodies were generated in the IgG-scFv format (Table 13) and evaluated for binding to soluble forms of human and cynomolgus monkey CD40 and human and cynomolgus monkey mesothelin using the Octet assay (Table 14). Association rate (Kon), disassociation rate (Kdis), and equilibrium binding constant (KD) were calculated. […] These bispecific antibodies were next evaluated for their ability to induce mesothelin-dependent activation of human B cells. CHO cells expressing human mesothelin were seeded into a 96 well plate. The next day varying concentrations of the mesothelin×CD40 IgG-scFv antibodies were added to the wells along with purified human B cells and the plates were incubated for an additional 48 hours. Upregulation of CD86, a marker of CD40-mediated B cell activation, was quantified on B cells by flow cytometry.

[2] = biological target: T2, huCD40(1-193) (human, UniProt P25942 21-193); experiment: Octet
T2 construct: also called soluble human CD40
Procedure: as §1

[3] = biological target: T3, cynoCD40(1-193) (cynomolgus monkey, UniProt P25942 21-193 (human entry)); experiment: Octet
T3 construct: also called soluble cynomolgus monkey CD40
T3 chain: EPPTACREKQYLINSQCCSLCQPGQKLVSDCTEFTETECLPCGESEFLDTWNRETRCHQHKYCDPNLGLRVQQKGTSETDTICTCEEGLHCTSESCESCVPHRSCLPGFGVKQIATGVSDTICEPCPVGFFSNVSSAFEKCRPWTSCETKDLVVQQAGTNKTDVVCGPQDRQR
Procedure: as §1

[4] = biological target: T4, huMSLN(296-598) (human, UniProt Q13421 296-598); experiment: Octet
T4 construct: also called soluble human mesothelin
Procedure: as §1
T4 sequence (Q13421 other isoform, or with tags, fused parts or gaps): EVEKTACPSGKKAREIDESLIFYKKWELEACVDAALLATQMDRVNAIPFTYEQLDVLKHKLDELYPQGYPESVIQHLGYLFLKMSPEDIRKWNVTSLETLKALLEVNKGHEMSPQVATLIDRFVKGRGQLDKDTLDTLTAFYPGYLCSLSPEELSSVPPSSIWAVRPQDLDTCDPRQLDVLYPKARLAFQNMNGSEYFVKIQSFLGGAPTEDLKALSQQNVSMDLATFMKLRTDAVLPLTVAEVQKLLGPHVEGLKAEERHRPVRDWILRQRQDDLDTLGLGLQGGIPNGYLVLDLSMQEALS

[5] = biological target: human CD40 (human, UniProt P25942 21-277); experiment: cell-based or functional assay
[6] = biological target: T5, huCD40(1-193) (human, UniProt P25942 21-193); experiment: Octet, soluble antigen
T5 construct: Soluble form used in Octet; also called human CD40; soluble human CD40

[7] = biological target: huMSLN(296-598) (human, UniProt Q13421 296-598); experiment: Octet, soluble antigen
Target sequence in this assay (Q13421 other isoform, or with tags, fused parts or gaps): as above

[8] = biological target: T6, cynoCD40(1-193) (cynomolgus monkey, UniProt P25942 21-193 (human entry)); experiment: Octet, soluble antigen
T6 construct: Soluble form used in Octet; also called cynomolgus monkey CD40
T6 chain: T3 chain

[9] = biological target: human CD40 on purified human B cells (human, UniProt P25942 21-277); experiment: cell-based or functional assay

Kd [1]: 4.3 nM
koff [1]: 0.0012 s⁻¹
kon [1]: 276000 M⁻¹ s⁻¹
Kd [2]: 1.2 nM
koff [2]: 0.000407 s⁻¹
kon [2]: 321000 M⁻¹ s⁻¹
Kd [3]: 0.9 nM
koff [3]: 0.000407 s⁻¹
kon [3]: 422000 M⁻¹ s⁻¹
Kd [4]: 0.1 nM
koff [4]: 3.87e-05 s⁻¹
kon [4]: 444000 M⁻¹ s⁻¹
EC50 (nM), CD86 upregulation on human B cells with huMSLN-CHO cells [5]: 0.00776 nM
B1: 6043-2 (bispecific antibody)
heavy: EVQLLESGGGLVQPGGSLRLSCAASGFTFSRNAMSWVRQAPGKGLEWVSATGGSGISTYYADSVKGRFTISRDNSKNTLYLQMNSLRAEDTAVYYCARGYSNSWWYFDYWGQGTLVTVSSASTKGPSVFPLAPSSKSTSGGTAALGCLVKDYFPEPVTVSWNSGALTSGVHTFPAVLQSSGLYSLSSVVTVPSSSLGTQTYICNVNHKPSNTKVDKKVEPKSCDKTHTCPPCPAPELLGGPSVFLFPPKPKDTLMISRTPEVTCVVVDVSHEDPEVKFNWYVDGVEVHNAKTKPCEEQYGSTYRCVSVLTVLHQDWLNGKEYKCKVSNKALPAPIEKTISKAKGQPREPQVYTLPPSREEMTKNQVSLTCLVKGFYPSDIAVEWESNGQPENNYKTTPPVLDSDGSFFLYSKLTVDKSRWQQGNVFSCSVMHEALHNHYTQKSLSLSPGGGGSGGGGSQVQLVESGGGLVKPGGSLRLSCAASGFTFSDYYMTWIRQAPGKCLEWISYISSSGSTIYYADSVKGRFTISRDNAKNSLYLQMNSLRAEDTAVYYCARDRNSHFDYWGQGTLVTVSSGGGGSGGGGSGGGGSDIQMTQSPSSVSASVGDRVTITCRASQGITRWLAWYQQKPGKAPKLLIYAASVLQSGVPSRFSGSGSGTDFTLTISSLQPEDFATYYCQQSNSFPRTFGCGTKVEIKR
light: QSALTQPASVSGSPGQSITISCTGTSSDVGNYNLVSWYQQHPGKAPKLMIFEVNQRPSGVSNRFSGSKSGTTASLTISGLQAADEADYFCCSYTTSSTYVIFGGGTKLTVLGQPKAAPSVTLFPPSSEELQANKATLVCLISDFYPGAVTVAWKADSSPVKAGVETTTPSKQSNNKYAASSYLSLTPEQWKSHRSYSCQVTHEGSTVEKTVAPTECS
notes: IgG-scFv: IgG (CD40) 30A12, scFv (MSLN) 4H6

Kd [1]: 5.5 nM
koff [1]: 0.00105 s⁻¹
kon [1]: 191000 M⁻¹ s⁻¹
Kd [2]: 3.5 nM
koff [2]: 0.000431 s⁻¹
kon [2]: 124000 M⁻¹ s⁻¹
Kd [3]: 4.7 nM
koff [3]: 0.000466 s⁻¹
kon [3]: 100000 M⁻¹ s⁻¹
Kd [4]: 0.2 nM
koff [4]: 0.000135 s⁻¹
kon [4]: 599000 M⁻¹ s⁻¹
EC50 (nM), CD86 upregulation on human B cells with huMSLN-CHO cells [5]: 0.00375 nM
B2: 6051-2 (bispecific antibody)
heavy: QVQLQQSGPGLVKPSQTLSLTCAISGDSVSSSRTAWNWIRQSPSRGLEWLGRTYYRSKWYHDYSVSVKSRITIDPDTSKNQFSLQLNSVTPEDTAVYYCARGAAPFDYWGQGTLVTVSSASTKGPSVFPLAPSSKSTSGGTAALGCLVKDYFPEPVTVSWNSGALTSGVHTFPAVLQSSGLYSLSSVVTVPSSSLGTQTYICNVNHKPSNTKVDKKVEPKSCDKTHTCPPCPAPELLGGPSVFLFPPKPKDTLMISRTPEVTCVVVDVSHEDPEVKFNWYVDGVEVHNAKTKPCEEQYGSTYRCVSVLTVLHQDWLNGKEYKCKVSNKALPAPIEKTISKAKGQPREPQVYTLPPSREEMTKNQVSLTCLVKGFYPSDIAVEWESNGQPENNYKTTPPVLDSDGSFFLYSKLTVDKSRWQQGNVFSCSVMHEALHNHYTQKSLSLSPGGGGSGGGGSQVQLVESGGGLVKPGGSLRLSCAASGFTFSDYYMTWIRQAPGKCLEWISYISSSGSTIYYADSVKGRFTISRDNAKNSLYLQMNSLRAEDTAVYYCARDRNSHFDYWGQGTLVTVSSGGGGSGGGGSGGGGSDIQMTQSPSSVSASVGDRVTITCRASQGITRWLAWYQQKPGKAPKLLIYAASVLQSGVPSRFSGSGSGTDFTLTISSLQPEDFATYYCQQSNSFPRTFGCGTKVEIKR
light: EIVLTQSPGTLSLSPGERATLSCRASQSVSSNYLAWYQQKPGQAPRALIYAASNRAAGISDRFSGSGSGTDFTLTISRLEPEDFAVYFCQQYGSSPLTFGGGTKVEIKRTVAAPSVFIFPPSDEQLKSGTASVVCLLNNFYPREAKVQWKVDNALQSGNSQESVTEQDSKDSTYSLSSTLTLSKADYEKHKVYACEVTHQGLSSPVTKSFNRGEC
notes: IgG-scFv: IgG (CD40) 36F3, scFv (MSLN) 4H6

Kd [6]: 0.7 nM
koff [6]: 0.000403 s⁻¹
kon [6]: 584000 M⁻¹ s⁻¹
Kd [7]: 0.2 nM
koff [7]: 0.000176 s⁻¹
kon [7]: 878000 M⁻¹ s⁻¹
Kd [8]: 0.9 nM
koff [8]: 0.000358 s⁻¹
kon [8]: 420000 M⁻¹ s⁻¹
EC50 (nM), CD86 upregulation on human B cells in the presence of CHO cells expressing human mesothelin [9]: 0.008 nM
B3: Anti-CD40xMSLN IgG-Fab molecule 5966-1 (bispecific antibody)
chain 1: QVQLVESGGGLVKPGGSLRLSCAASGFTFSDYYMTWIRQAPGKGLEWISYISSSGSTIYYADSVKGRFTISRDNAKNSLYLQMNSLRAEDTAVYYCARDRNSHFDYWGQGTLVTVSS
chain 2: DIQMTQSPSSVSASVGDRVTITCRASQGITRWLAWYQQKPGKAPKLLIYAASVLQSGVPSRFSGSGSGTDFTLTISSLQPEDFATYYCQQSNSFPRTFGQGTKVEIK
chain 3: QVQLVESGGGLVKPGGSLRLSCAASEFTFSDYYMSWIRQAPGKGLEWVSYISRSGDTIYYADSVKGRFTISRDNAKNSLYLQMNGLRAEDTAVYYCARDLAAGATGGLDCWGQGTLVTVSS
chain 4: SYELTQPPSVSVSPGQTASITCSGERLGNKYICWYQQKPGQSPVLVIYQDFKRPSGIPERFSGSNSGITATLTISGTQAMDEADYYCQAWDSRTVVFGGGTKLTVLG

Kd [6]: 1.6 nM
koff [6]: 0.000395 s⁻¹
kon [6]: 245000 M⁻¹ s⁻¹
Kd [7]: 0.3 nM
koff [7]: 0.000258 s⁻¹
kon [7]: 774000 M⁻¹ s⁻¹
Kd [8]: 1.3 nM
koff [8]: 0.000208 s⁻¹
kon [8]: 163000 M⁻¹ s⁻¹
EC50 (nM), CD86 upregulation on human B cells in the presence of CHO cells expressing human mesothelin [9]: 0.005 nM
B4: Anti-CD40xMSLN IgG-Fab molecule 5970-1 (bispecific antibody)
chain 1: B3 chain 1 with T35S, G55E, T57I, A61V, R100V, N101G
chain 2: DIQMTQSPSSVSASVGDRVTITCRASQDISRWLAWYQQKPGKAPKLLISAASRLQSGVPSRFSGSGSGTDFTLTISSLQPEDFAIYYCQQAKSFPRTFGQGTKVEIKR
chain 3: QVQLVESGGGVVQPGRSLRLSCAASGFTFSSHGMHWVRQPPGKGLEWVAVIWYDGSNEYYGDSVKGRFTISRDNSKNTLYLQMNSLRVEDTAVYYCTRGGGHWNYEGHYYGMDVWGQGTTVTVSS
chain 4: QAVPTQPSSLSASPGASASLTCTLRSGINVGSSRIYWYQQKPGSPPQFLLRYTSDSDKLQGSGVPSRFSGSKDASANAGLLLISGLQSEDEADYYCMIWHSSAVVFGGGTKLTVLG

Kd [6]: 0.4 nM
koff [6]: 0.000467 s⁻¹
kon [6]: 1.08e+06 M⁻¹ s⁻¹
Kd [7]: 1.3 nM
koff [7]: 0.000242 s⁻¹
kon [7]: 181000 M⁻¹ s⁻¹
Kd [8]: 0.2 nM
koff [8]: 0.000423 s⁻¹
kon [8]: 1.86e+06 M⁻¹ s⁻¹
EC50 (nM), CD86 upregulation on human B cells in the presence of CHO cells expressing human mesothelin [9]: 0.004 nM
B5: Anti-CD40xMSLN IgG-Fab molecule 5991-1 (bispecific antibody)
chain 1: EVQLLESGGGLVQPGGSLRLSCAASGFTFSRNAMSWVRQAPGKGLEWVSATGGSGISTYYADSVKGRFTISRDNSKNTLYLQMNSLRAEDTAVYYCARGYSNSWWYFDYWGQGTLVTVSS
chain 2: B1 light
chain 3: B3 chain 1 with T35S, G55E, T57I, A61V, R100V, N101G
chain 4: B4 chain 2

Kd [6]: 0.4 nM
koff [6]: 0.000256 s⁻¹
kon [6]: 650000 M⁻¹ s⁻¹
Kd [7]: 0.3 nM
koff [7]: 0.000353 s⁻¹
kon [7]: 1.03e+06 M⁻¹ s⁻¹
Kd [8]: 0.7 nM
koff [8]: 0.000414 s⁻¹
kon [8]: 598000 M⁻¹ s⁻¹
EC50 (nM), CD86 upregulation on human B cells in the presence of CHO cells expressing human mesothelin [9]: 0.004 nM
B6: Anti-CD40xMSLN IgG-Fab molecule 5968-1 (bispecific antibody)
chain 1: B3 chain 1 with T35S, G55E, T57I, A61V, R100V, N101G
chain 2: B4 chain 2
chain 3: B5 chain 1
chain 4: B1 light

Kd [1]: 4.3 nM
koff [1]: 0.00109 s⁻¹
kon [1]: 252000 M⁻¹ s⁻¹
Kd [2]: 0.9 nM
koff [2]: 0.000427 s⁻¹
kon [2]: 453000 M⁻¹ s⁻¹
Kd [3]: 0.5 nM
koff [3]: 0.000125 s⁻¹
kon [3]: 263000 M⁻¹ s⁻¹
Kd [4]: 0.4 nM
koff [4]: 0.000151 s⁻¹
kon [4]: 341000 M⁻¹ s⁻¹
EC50 (nM), CD86 upregulation on human B cells with huMSLN-CHO cells [5]: 0.00403 nM
B7: 6053-2 (bispecific antibody)
heavy: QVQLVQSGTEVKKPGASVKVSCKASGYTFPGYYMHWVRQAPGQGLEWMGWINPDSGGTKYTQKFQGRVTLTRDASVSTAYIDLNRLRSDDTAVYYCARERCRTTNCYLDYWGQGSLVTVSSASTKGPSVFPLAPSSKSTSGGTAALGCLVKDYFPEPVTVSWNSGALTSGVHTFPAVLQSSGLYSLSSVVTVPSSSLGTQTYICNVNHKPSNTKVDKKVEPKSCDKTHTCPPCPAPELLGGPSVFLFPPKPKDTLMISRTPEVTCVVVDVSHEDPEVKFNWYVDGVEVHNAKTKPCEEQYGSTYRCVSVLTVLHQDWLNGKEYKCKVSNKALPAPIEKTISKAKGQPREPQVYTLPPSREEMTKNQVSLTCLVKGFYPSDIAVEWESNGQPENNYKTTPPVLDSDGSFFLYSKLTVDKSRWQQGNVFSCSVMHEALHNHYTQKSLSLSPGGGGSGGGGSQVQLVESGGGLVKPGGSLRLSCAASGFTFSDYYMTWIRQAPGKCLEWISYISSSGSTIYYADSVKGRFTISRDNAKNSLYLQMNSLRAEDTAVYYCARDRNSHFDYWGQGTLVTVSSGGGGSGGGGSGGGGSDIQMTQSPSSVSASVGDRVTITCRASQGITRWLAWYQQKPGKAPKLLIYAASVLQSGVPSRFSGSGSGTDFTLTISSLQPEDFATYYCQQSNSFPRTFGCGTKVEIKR
light: QSALTQPASVSGSPGQSITISCTGTSSDVGNYNLVSWYQQHPGKAPKLMIYEVNRRPSGVSNRFSGSKSGNTASLTISGLQAEDEAEYYCCSYAGRDTFVVFGGGTKLTVLGQPKAAPSVTLFPPSSEELQANKATLVCLISDFYPGAVTVAWKADSSPVKAGVETTTPSKQSNNKYAASSYLSLTPEQWKSHRSYSCQVTHEGSTVEKTVAPTECS
notes: IgG-scFv: IgG (CD40) 39C2, scFv (MSLN) 4H6

Kd [1]: 16 nM
koff [1]: 0.00535 s⁻¹
kon [1]: 326000 M⁻¹ s⁻¹
Kd [2]: 1 nM
koff [2]: 0.00044 s⁻¹
kon [2]: 431000 M⁻¹ s⁻¹
Kd [3]: 0.9 nM
koff [3]: 0.000413 s⁻¹
kon [3]: 447000 M⁻¹ s⁻¹
Kd [4]: 1.1 nM
koff [4]: 0.00046 s⁻¹
kon [4]: 432000 M⁻¹ s⁻¹
EC50 (nM), CD86 upregulation on human B cells with huMSLN-CHO cells [5]: 0.00281 nM
B8: 6023-2 (bispecific antibody)
heavy: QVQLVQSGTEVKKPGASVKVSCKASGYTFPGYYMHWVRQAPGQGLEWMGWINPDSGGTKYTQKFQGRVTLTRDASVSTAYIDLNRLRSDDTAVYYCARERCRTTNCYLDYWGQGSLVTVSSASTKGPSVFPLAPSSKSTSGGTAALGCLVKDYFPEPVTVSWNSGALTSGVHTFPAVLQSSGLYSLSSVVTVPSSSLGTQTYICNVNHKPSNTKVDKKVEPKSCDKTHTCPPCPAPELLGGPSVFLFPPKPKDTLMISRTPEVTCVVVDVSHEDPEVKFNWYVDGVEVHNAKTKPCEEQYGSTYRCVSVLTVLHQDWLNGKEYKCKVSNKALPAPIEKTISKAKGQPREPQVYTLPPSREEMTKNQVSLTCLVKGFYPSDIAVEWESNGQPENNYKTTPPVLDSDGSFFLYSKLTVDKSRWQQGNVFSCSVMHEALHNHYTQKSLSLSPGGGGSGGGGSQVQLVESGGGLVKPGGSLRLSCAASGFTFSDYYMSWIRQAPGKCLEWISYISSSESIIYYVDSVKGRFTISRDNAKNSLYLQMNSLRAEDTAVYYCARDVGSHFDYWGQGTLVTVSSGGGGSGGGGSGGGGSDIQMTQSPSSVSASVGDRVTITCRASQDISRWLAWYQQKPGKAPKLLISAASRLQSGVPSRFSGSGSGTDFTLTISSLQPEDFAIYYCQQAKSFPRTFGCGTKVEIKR
light: B7 light
notes: IgG-scFv: IgG (CD40) 39C2, scFv (MSLN) 6F4

Kd [1]: 6.1 nM
koff [1]: 0.00109 s⁻¹
kon [1]: 179000 M⁻¹ s⁻¹
Kd [2]: 0.5 nM
koff [2]: 0.000787 s⁻¹
kon [2]: 1.46e+06 M⁻¹ s⁻¹
Kd [3]: 0.8 nM
koff [3]: 0.00057 s⁻¹
kon [3]: 745000 M⁻¹ s⁻¹
Kd [4]: 0.4 nM
koff [4]: 0.000211 s⁻¹
kon [4]: 552000 M⁻¹ s⁻¹
EC50 (nM), CD86 upregulation on human B cells with huMSLN-CHO cells [5]: 0.00434 nM
B9: 6055-2 (bispecific antibody)
heavy: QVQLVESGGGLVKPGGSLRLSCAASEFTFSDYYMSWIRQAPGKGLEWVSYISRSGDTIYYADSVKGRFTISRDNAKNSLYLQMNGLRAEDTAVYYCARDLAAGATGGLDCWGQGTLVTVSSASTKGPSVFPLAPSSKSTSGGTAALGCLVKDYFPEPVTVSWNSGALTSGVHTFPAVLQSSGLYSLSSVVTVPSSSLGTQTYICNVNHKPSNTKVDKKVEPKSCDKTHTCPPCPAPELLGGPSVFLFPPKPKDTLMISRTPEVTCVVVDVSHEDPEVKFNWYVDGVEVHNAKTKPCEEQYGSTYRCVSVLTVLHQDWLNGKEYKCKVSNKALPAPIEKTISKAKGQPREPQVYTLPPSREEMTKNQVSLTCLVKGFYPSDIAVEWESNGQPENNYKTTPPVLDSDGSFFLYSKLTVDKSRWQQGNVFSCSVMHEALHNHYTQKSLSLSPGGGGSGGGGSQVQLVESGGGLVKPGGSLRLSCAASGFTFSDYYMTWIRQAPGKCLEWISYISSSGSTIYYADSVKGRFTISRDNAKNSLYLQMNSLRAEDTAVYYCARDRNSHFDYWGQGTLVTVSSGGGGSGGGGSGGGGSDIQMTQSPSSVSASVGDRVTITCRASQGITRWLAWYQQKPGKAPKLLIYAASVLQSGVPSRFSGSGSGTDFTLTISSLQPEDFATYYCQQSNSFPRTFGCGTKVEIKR
light: SYELTQPPSVSVSPGQTASITCSGERLGNKYICWYQQKPGQSPVLVIYQDFKRPSGIPERFSGSNSGITATLTISGTQAMDEADYYCQAWDSRTVVFGGGTKLTVLGQPKAAPSVTLFPPSSEELQANKATLVCLISDFYPGAVTVAWKADSSPVKAGVETTTPSKQSNNKYAASSYLSLTPEQWKSHRSYSCQVTHEGSTVEKTVAPTECS
notes: IgG-scFv: IgG (CD40) 37A6, scFv (MSLN) 4H6

Kd [1]: 17 nM
koff [1]: 0.00578 s⁻¹
kon [1]: 336000 M⁻¹ s⁻¹
Kd [2]: 0.8 nM
koff [2]: 0.000333 s⁻¹
kon [2]: 438000 M⁻¹ s⁻¹
Kd [3]: 1.4 nM
koff [3]: 0.0004 s⁻¹
kon [3]: 277000 M⁻¹ s⁻¹
Kd [4]: 1.3 nM
koff [4]: 0.000462 s⁻¹
kon [4]: 367000 M⁻¹ s⁻¹
EC50 (nM), CD86 upregulation on human B cells with huMSLN-CHO cells [5]: 0.00333 nM
B10: 6054-2 (bispecific antibody)
heavy: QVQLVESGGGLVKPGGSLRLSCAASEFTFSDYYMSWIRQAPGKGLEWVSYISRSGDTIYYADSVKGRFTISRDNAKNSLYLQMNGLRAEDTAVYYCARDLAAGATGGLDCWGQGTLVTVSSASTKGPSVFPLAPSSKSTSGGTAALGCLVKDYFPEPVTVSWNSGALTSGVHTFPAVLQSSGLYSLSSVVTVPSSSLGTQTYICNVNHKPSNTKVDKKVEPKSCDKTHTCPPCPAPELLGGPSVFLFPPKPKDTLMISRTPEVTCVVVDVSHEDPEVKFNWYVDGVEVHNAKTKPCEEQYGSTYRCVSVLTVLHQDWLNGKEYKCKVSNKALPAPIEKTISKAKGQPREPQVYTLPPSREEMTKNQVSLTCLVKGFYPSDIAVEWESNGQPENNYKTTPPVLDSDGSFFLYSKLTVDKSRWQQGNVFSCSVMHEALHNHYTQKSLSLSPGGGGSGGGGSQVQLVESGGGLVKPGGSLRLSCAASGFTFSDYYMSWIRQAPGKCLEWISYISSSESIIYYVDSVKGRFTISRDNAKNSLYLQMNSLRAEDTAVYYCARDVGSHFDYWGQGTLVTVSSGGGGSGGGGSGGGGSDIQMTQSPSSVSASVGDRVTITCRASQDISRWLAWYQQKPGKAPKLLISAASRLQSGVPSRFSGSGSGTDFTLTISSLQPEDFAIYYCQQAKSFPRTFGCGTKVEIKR
light: B9 light
notes: IgG-scFv: IgG (CD40) 37A6, scFv (MSLN) 6F4
